Patent US10159707B2, “Treatment of cancers with immunostimulatory HIV Tat derivative polypeptides” (PIN Pharma, Inc., priority 2013, dated 2018)
Entries after “also recorded” stand apart in the source; their conditions may differ.

How the values were obtained:
Format in all cases: in vivo, mouse
[1] = test system: TS/A breast cancer cells; test: TS/A breast carcinoma model, primary tumor growth
Protocol: (§1) BALB/c mice were injected (SC) with 1×10^4 4 T1, 1×10^5 TS/A or 2×10^5 SM1 cells, respectively, in the left mammary pad on day 0. Immunotherapy was performed by directly injecting a Tat derivative into the right flank at 0, 7, 12, and 17 days after establishment of tumors. The control group received PBS injection. […] Tumor burden (tumor volume) was measured and recorded three times weekly. Animals were sacrificed when tumors reached a volume of 15 mm in diameter and the tumors harvested and weighed.
The 4T1 murine mammary tumor model was chosen for study because it is an aggressive and rapidly invasive tumor; it is routinely metastatic at fourteen days post-implant by which time it is difficult to treat. To learn whether the efficacy of Nani-P2 could extend to other murine breast tumor models, two additional mammary tumors, TS/A and SM1 were studied (FIG. 6). TS/A primary mammary tumors were approximately as aggressive as 4T1, reaching a tumor volume of 15 mm at 30 days (FIG. 6A). However, the TS/A tumors were considerably more responsive to Nani-P2 treatment, with an approximate 50% suppression of growth after treatment with 0.4 ng Nani-P2, and a 40% total remission rate at 30 days.

[2] = test system: SM1 breast cancer cells; test: SM1 mammary carcinoma model, primary tumor growth
Protocol: as §1, with “Immunotherapy was performed by directly injecting a Tat derivative into the right flank at 0, 7, 12, and 17 days after establishment of tumors.” left out
The SM1 mammary carcinoma model (FIG. 6B) is initially less aggressive as a primary tumor, and deaths appear to be through mechanisms other than metastatic disease. By day 30 of treatment, SM1 tumors reached a mean volume approximately 33% smaller than either TS/A or 4T1. This indicated a heightened sensitivity of the SM1 tumor to Nani-P2 immunotherapy as compared to 4T1, such that tumor growth was suppressed in 100% of animals for 16 days, and 40% of animals remained in remission even at 28 days following implant and fully one week after termination of the regimen.

[3] = test system: 4T1 breast tumors; test: Kaplan-Meier survival of mice bearing 4T1 breast tumors
Protocol: To determine whether Nani-P2 treatment could extend survival in addition to shrinking primary tumors in mice, treatment protocols using various dosing schedules and routes (SC, IV or IT) of administration of 40 ng Nani-P2 were performed. Cohorts of ten mice per group were followed for length of survival, as assessed by use of the Kaplan-Meier product limit method. As per Columbia University Medical Center Animal Facility regulations, each mouse was euthanized at a mean tumor diameter of approximately 15 mm, or earlier if the mouse became moribund, making one of these two outcomes the defining criteria for fatality.

B1: Nani-P2: Tat derivative polypeptide SEQ ID NO:3; TF SIVagmVer, cysteine-rich HIV-1, C-terminal SIVagmVer (protein)
chain: MDPKGEEDQDVSHQDLIKQYRKPRTACNNCYCKKCCFHCYACFLRKGLGITYHAFRTRRKKIASADRIPVPQQSISIRGRDSQTTQESQKKVEEQAKANLRISRKNLGDETRGPVGAGN
modifications: Tat derivative polypeptide
notes: TF SIVagmVer, cysteine-rich HIV-1, C-terminal SIVagmVer
[1]; 0.4 ng SC
  suppression of TS/A tumor growth: ~50%
[1]; 0.4 ng SC, p<0.01
  TS/A primary anti-cancer difference versus control, lowest dose: highly significant
[1]; 40 ng SC, p<0.01
  TS/A primary anti-cancer difference versus control, 40 ng: highly significant
[1]; SC Nani-P2, 30 days
  TS/A total remission rate at 30 days: 40%
[2]; 40 ng SC days 0, 7, 14, 21
  animals with SM1 tumor growth suppressed for 16 days: 100%
[2]; 40 ng SC days 0, 7, 14, 21, p<0.01
  difference in SM1 primary tumor growth versus control: highly statistically significant
[2]; 40 ng SC, one week after termination of the regimen
  animals remaining in remission at 28 days following implant: 40%
[3]; 40 ng IT, three weekly cycles, tumors established fourteen days
  survival, intratumoral administration: slightly inferior to SC administration
[3]; 40 ng IV, three weekly cycles, tumors established fourteen days, p<0.005
  survival at day 47: 60%
[3]; 40 ng SC, 4 doses over 21 days from tumor implant, p<0.001
  treated mice still alive at day 48: 35%
[3]; 40 ng SC, three weekly cycles, tumors established fourteen days, p<0.05
  survival at day 47: 20%
[3]; 4T1 model
  survival versus control mice: increased survival compared with control mice
[3]; established 4T1 tumors, treated intravenously
  tumor growth inhibition and survival benefits, extension past the last dosing: at least 36 days
[3]; four doses 40 ng SC from day 0
  survival versus controls at day 42: statistically significant better survival over controls
[3]; three weekly doses 40 ng IV, therapy delayed until day 13/14, day 47
  survival benefit versus control, IV: very highly statistically significant benefit to survival; also recorded: highly statistically significant
[3]; three weekly doses 40 ng SC into draining lymph nodes, therapy delayed until day 13, day 47
  survival benefit versus control, SC: statistically significant
